Test results: patent publication US20230038638A1, “COMPLEMENT FACTOR I-RELATED COMPOSITIONS AND METHODS” (published 2023)
Substitutions are numbered along the chain they refer to.

B1: WT mouse CFI (enzyme)
chain: RSPSASDLPQEELVDQKCLLQKYTHRSCNKVFCQPWQRCIEGTCICKLPYQCPRAGTPVCAMNGRSYPTYCHQKSFECLHPEIKFSHNGTCAAEGKFNVSLIYGRTKTEGLVQVKLVDQDERMFICKNSWSMAEANVACVDLGFPLGVRDIQGSFNISGNLHINDTECLHVHCRGVETSLAECAFTKRRTELSNGLAGVVCYKQDADFPTSLSFQCVNGKHIPQEKACNGVNDCGDQSDELCCKGCRGNASLCKSGVCIPDQYKCNGEVDCITGEDESRCEEDRQQNIPKGLARSAQGEAEIETEETEMLTPGMDNERKRIKSLLPKLSCGVKRNTHTRRKRVIGGKPANVGDYPWQVAIKDGQRITCGGIYIGGCWILTAAHCVRPSRAHSYQVWTALLDWLKPNSQLGIQTVKRVIVHEKYNGATFQNDIALIEMKMHTGKKECELPNSVPACVPWSPYLFQPNDRCIISGWGRGKDNQKVYSLRWGEVDLIGNCSQFYPDRYYEKEMQCAGTRDGSIDACKGDSGGPLVCEDINNVTYVWGIVSWGENCGKPEFPGVYTRVANYFDWISYHVGRSLVSQHNV

How the values were obtained:
human C4b (human) [1] = target: T1, human C4b (human) (UniProt P0C0L4)
T1 sequence: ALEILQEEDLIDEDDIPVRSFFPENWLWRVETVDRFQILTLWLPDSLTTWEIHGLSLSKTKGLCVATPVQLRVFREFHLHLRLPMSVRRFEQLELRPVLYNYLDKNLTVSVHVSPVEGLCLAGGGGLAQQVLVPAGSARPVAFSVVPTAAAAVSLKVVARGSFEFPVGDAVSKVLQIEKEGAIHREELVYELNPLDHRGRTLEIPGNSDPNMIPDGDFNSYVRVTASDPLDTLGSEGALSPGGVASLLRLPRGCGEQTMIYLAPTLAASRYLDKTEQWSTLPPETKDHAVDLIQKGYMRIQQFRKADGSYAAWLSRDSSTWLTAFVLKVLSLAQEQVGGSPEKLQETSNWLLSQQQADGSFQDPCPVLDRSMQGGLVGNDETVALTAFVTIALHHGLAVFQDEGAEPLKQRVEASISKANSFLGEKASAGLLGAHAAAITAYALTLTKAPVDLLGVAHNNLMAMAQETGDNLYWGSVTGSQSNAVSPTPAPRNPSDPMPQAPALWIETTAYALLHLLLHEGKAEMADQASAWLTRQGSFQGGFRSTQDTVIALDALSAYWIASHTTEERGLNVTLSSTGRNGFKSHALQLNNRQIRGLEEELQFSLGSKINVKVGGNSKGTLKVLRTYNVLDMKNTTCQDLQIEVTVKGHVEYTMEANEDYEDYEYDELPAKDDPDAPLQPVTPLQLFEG

[2] = target: soluble human C3b (human) (UniProt P01024)
human C4b (human) [3] = target: T1, human C4b (human); remark: listed apart in the source
[4] = target: soluble human C3b (human) (UniProt P01024); remark: listed apart in the source
human C4b (human) [5] = target: T2, human C4b (human) (UniProt P0C0L5)
T2 sequence: T1 sequence with A151T, D317G, P364L, C365S, L368I, D369H, N420S, V451A, L454R, S530A

Molecule | C4b Screen Ref Fold (fold of reference) (human C4b (human) [1]) | iC3b Screen Ref Fold (fold of reference) [2] | C4c EC50 (nM) (human C4b (human) [3]) | iC3b EC50 [4] [nM] | C4b Screen Ref Fold (fold of CFI-HSA wild type) (human C4b (human) [1]) | iC3b Screen Ref Fold (fold of CFI-HSA wild type) [2] | C4b Screen Ref Fold (fold vs CFI-HSA wild type) (human C4b (human) [5]) | iC3b Screen Ref Fold (fold vs CFI-HSA wild type) [2] | C4b Screen Ref Fold (fold of CFI-HSA wild type) (human C4b (human) [5]) | C4c EC50 (human C4b (human) [3]) [nM]
CFI-HSA variant E461I (enzyme) | 3.83 | 1.44 | 100 | 9.8 | – | – | – | – | – | –
CFI-HSA variant N531K (enzyme) | 3.03 | -0.01 | 223 | 13 | – | – | – | – | – | –
CFI-HSA variant E461M (enzyme) | 1.9 | 2.12 | 148 | 6.9 | – | – | – | – | – | –
CFI-HSA variant E457G; E461Q; E530Y; N531G; P558S (enzyme) | – | – | 21 | 5.2 | 4.04 | 1.25 | – | – | – | –
CFI-HSA variant A405S (enzyme) | 2.12 | 0.94 | 353 | 23.9 | – | – | – | – | – | –
WT; GGSSGG (SEQ ID NO: 6); CR1(ccp15-17) (enzyme) | – | – | 53.1 | 31.9 | – | – | 5.25 | 0.04 | – | –
CFI-HSA variant K534Q (enzyme) | – | – | 595 | 21.7 | – | – | 1.76 | 1.53 | – | –
CFI-HSA variant Y408L; E457G; N531G; P535G; P558S (enzyme) | – | – | – | 9.6 | – | 1.39 | – | – | 4.34 | 27.9
CFI-HSA variant Y408F (enzyme) | – | – | 225 | 19.2 | – | – | 1.88 | 0.61 | – | –
CFI-HSA variant K504R (enzyme) | – | – | 439 | 33.7 | – | – | 0.51 | 0.89 | – | –
CFI-HSA variant E457G; N531G; P535G; K534Q (enzyme) | – | – | – | 8.2 | – | 2.34 | – | – | 5.28 | 48.3
CFI-HSA variant E457A (enzyme) | – | – | 113 | 16.9 | – | – | 4.68 | 1.43 | – | –
CFI-HSA variant N531G; D425K (enzyme) | – | – | – | 5.2 | – | 1.19 | – | – | 4.7 | 51.9
CFI-HSA variant E457F (enzyme) | – | – | > 1000 | 96.8 | – | – | 0.01 | 0.05 | – | –
CFI-HSA variant Y408L; E457G; P535G (enzyme) | – | – | – | 11.7 | – | 0.6 | – | – | 1.21 | 205
CFI-HSA variant A502S (enzyme) | – | – | 640 | 26.7 | – | – | 0.36 | 0.96 | – | –
CFI-HSA variant E457G; E461G (enzyme) | – | – | 222 | 22.2 | – | – | 4.31 | 1.28 | – | –

Molecule | C4b Screen Ref Fold (fold of reference) (human C4b (human) [1]) | iC3b Screen Ref Fold (fold of reference) [2] | C4c EC50 (nM) (human C4b (human) [3]) | iC3b EC50 [4] [nM] | C4b Screen Ref Fold (fold of CFI-HSA wild type) (human C4b (human) [1]) | iC3b Screen Ref Fold (fold of CFI-HSA wild type) [2] | C4b Screen Ref Fold (fold vs CFI-HSA wild type) (human C4b (human) [5]) | iC3b Screen Ref Fold (fold vs CFI-HSA wild type) [2] | C4b Screen Ref Fold (fold of CFI-HSA wild type) (human C4b (human) [5]) | C4c EC50 (human C4b (human) [3]) [nM]
CFI-HSA variant K504A (enzyme) | – | – | > 1000 | 51.9 | – | – | 0.23 | 0.41 | – | –
CFI-HSA variant P535G; D425K (enzyme) | – | – | – | 19.4 | – | 0.53 | – | – | 0.1 | 865
CFI-HSA variant F464Y (enzyme) | – | – | 347 | 55.4 | – | – | 0.55 | 0.27 | – | –
CFI-HSA variant E416A (enzyme) | – | – | 425 | 12.8 | – | – | 1.15 | 1.08 | – | –
CFI-HSA variant K504H (enzyme) | – | – | 229 | 53.6 | – | – | 3.84 | 0.54 | – | –
CFI-HSA variant E457G; P535G; D425K (enzyme) | – | – | – | 6 | – | 1.02 | – | – | 4.15 | 90
CFI-HSA variant P535G; E416A (enzyme) | – | – | > 1000 | 41.6 | – | 0.53 | – | – | 0.13 | –
CFI-HSA variant F559L; Y563H (enzyme) | – | – | – | 39.6 | – | 0.71 | – | – | 1.03 | 130
CFI-HSA variant E530D; F537K (enzyme) | – | – | 373 | 15.6 | – | – | 0.92 | 0.98 | – | –
CFI-HSA variant P558A (enzyme) | – | – | – | 20.8 | – | 0.87 | – | – | 1.21 | 213
CFI-HSA variant E457G; N531G; E461Q; R462K; F464Y; E416A (enzyme) | – | – | 7.5 | 5.2 | – | 2.21 | – | – | 4.38 | –
CFI-HSA variant E457G; P535G (enzyme) | – | – | – | 13.8 | – | 0.68 | – | – | 1.93 | 158
CFI-HSA variant E457G; N422K (enzyme) | – | – | – | 5.2 | – | 1.51 | – | – | 5.49 | 32.6
CFI-HSA variant E530Y (enzyme) | – | – | 381 | 16.1 | – | – | 0.33 | 1.16 | – | –
CFI-HSA variant K504L (enzyme) | – | – | > 1000 | 144 | – | – | 0.01 | 0.12 | – | –
B1 | – | – | 54 | > 500 | – | – | 6.24 | 0.04 | – | –
